Laboratory results: article doi:10.1101/2023.02.07.527441

Molecular target: PmScsC-EcDsbA chimera (Proteus mirabilis | E. coli) (UniProt P0AEG4)
Test: AUC

stoichiometry N: 3
Substance: PmScsC-EcDsbA chimera (from UniProt P0AEG4 20-208) (enzyme)
